B1: mRNA-decapping enzyme 1A (Homo sapiens), Q9NPI6 (parent)
chain: MEALSRAGQEMSLAALKQHDPYITSIADLTGQVALYTFCPKANQWEKTDIEGTLFVYRRSASPYHGFTIVNRLNMHNLVEPVNKDLEFQLHEPFLLYRNASLSIYSIWFYDKNDCHRIAKLMADVVEEETRRSQQAARDKQSPSQANGCSDHRPIDILEMLSRAKDEYERNQMGDSNISSPGLQPSTQLSNLGSTETLEEMPSGSQDKSAPSGHKHLTVEELFGTSLPKEQPAVVGLDSEEMERLPGDASQKEPNSFLPFPFEQLGGAPQSETLGVPSAAHHSVQPEITTPVLITPASITQSNEKHAPTYTIPLSPVLSPTLPAEAPTAQVPPSLPRNSTMMQAVKTTPRQRSPLLNQPVPELSHASLIANQSPFRAPLNVTNTAGTSLPSVDLLQKLRLTPQHDQIQTQPLGKGAMVASFSPAAGQLATPESFIEPPSKTAAARVAASASLSNMVLAPLQSMQQNQDPEVFVQPKVLSSAIPVAGAPLVTATTTAVSSVLLAPSVFQQTVTRSSDLERKASSPSPLTIGTPESQRKPSIILSKSQLQDTLIHLIKNDSSFLSTLHEVYLQVLTKNKDNHNL
B2: mRNA-decapping enzyme 1A (Homo sapiens), Q9NPI6 (parent)
chain: B1 chain
partner: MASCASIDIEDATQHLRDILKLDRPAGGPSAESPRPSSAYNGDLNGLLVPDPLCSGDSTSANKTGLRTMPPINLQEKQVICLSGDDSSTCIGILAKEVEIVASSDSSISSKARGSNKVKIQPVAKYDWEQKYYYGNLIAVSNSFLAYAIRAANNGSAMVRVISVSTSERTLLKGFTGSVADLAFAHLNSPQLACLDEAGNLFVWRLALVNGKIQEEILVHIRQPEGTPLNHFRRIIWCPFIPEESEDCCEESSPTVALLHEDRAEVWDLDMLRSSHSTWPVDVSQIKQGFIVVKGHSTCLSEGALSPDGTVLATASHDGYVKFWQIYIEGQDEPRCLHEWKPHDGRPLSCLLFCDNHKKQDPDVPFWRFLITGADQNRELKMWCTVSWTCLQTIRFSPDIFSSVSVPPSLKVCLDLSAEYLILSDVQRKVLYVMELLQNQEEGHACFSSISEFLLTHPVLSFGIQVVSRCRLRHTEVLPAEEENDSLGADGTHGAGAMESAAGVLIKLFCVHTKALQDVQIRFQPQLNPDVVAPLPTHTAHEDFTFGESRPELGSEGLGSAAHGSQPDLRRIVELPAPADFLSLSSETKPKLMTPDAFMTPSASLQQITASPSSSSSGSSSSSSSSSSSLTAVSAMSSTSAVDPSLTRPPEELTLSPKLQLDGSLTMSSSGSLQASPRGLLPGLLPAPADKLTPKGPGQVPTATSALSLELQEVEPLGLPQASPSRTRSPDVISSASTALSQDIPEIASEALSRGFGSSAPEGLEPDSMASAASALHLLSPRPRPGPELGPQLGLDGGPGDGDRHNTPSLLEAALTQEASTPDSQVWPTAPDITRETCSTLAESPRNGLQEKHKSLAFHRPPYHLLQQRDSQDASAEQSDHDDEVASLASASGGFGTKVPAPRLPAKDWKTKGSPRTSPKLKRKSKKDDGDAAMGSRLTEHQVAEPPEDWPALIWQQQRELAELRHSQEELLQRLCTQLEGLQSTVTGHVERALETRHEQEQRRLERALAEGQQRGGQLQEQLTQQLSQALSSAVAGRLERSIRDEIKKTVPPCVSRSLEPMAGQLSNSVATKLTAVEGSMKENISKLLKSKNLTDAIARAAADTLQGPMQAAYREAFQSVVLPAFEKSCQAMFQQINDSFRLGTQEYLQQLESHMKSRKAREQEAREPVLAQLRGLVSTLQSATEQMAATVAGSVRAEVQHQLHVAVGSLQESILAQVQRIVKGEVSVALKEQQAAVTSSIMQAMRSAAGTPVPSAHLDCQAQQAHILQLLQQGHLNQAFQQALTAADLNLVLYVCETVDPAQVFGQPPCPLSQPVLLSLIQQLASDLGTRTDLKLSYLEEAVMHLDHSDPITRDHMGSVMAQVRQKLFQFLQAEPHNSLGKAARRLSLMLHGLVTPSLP

Variants of: B1
Details: with dcp2_human DCP2, Q8IU60

effect of a mutation on the interaction	Variant
disrupting interaction	L551R;I555S;F561R;L565S
disrupting interaction	I552S;I555R;L562E
disrupting interaction	L554S;F561R;L565S

Variants of: B2
Details: with edc4_human EDC4, Q6P2E9

effect of a mutation on the interaction	Variant
disrupting interaction	L551R;I555S;F561R;L565S
disrupting interaction	L554S;F561R;L565S
disrupting interaction	I552S;I555R;L562E

— IntAct's records for PubMed 19966221
